Earlier results in paper PMC6746776.

Target: p63 TAD TAD (Homo sapiens) (UniProt Q9H3D4)
Sequence (Q9H3D4 1-107): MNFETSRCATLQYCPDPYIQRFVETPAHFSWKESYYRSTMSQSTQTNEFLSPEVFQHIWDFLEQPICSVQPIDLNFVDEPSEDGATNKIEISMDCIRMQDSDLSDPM

p300 Taz2, sequence (Q09472 1723-1812): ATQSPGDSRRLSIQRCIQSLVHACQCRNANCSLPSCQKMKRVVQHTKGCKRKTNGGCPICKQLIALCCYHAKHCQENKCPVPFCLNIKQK

Kd: 0.196 µM
Substance: p300 Taz2 (from UniProt Q09472)
